Test: soluble on expression in E. coli; label from the status in PepcDB or PDB records

Sequence	soluble on expression in E. coli
MSLHATMEDVAKLAGVSLKSVSRVINAEPHVSAKLRAKVEAAIAELNYVPDTAARSLAGSRAFIVGLLFDNPSPNYTMNIQKGVYETCRDQQHHLRIDNIDSTVPAEKFEAQLAAMVRNSRCDGFVLTPPLTDNVVLLDFLDRSGIRYVRIAPDIQPDRSPGVCIDDAAAAAAAARHLWELGHRRFAVVRGPASHGAAGRRRQGFIDELHRLGAENPIIEAEGNFSFESGIAAGAKVLAATPRPTAIFAANDDSAAGVMVACSQAGLKVPNDVSVCGFDDSWVAKSVWPYLTTVYQPIEEMGRAAAALLLRRDEPDNVLHELDFSLVVRASTAEGHHHHHH	soluble
MSLHILHIASSPRGERSVSLKLASRYLETLTSLHPESTVDVLDVWTIDLLPFDGPALEAKYADLQGVQMSDEQQAVWKQIHALGERFHRADVILFSVPMWNFGVPYRLKHLIDSVSQRGVLFEFDAQGMRGLLKGKNVVVFASRGVALGEDFPTEAYDHQVAYLKTWARMVGIPTIDAVLSEATLADPATAEANFTAALAEASKLAAAVQEGHHHHHH	soluble
MSLHNNIDAFTLKPRHVEQIRQALPEVAITVSASDSDFMDRLPDAEYALVWVFKPEWYATAPRLKALFTPAAGRDWVAADPSGRVMTCHGSFHGRIMRESLLSMMLYFNRRLGQSLEDQGRRMWGRPDYSGCVGLFSQRVMIVGLGALGQSMAELLKAFGAHVTGVKRNPESFAGSPCVDRVISFDALEEALPEADHVVLLLPGGTATDGIFTARHFNAMRPGAYLYNLGRGNCYREEDLVAALEDGRLAGAGLDVFAEEPLPASSPLWEQRNVLITPHSSAISREYLDLFIQEWLETLRKGAPQNEGHHHHHH	not soluble
MSLHQFLLFKIKVPTGSMMPTVEIGDQLFVTKIYNPNNIKRGDIVVFNSDELKEPLLKRVIGLPGEHVEIKSDGSVYINGNKLEEDYVKYQGGKTDMSFDVPSGKFLMLGDNRNNSDDARYWSNPYIDGKDIEAKAQLTVYPFDRIGFVKEGHHHHHH	soluble
MSLHRISDRFPVHVVVWPVKVQGEGSGEEVANAIRGFNALKPGGDIARPDVLIVARGGGSLEDLWSFNDEIVVRAAAESEIPLISAVGHETDTTLIDYAADVRAPTPTGAAEMAVPVRAELEAQLSGLAARLSGSVSRQMDNRRQGVRALVRALPSLDQLLALPRRRFDEAASGLGRGLELTTLNKRRAFERSASGLRPETLLNGLKHHRQRITERMHRAETLVEREGHHHHHH	soluble
MSLIDRFGRPLEDLRITLTHACNFECFFCHMEGEEGDNYLLSKEDILLVAKVARKFGINSVKLTGGEPTLRRDLVEIVRGLKQLGYEDVSMTTNGFLLKDLAHKLKLAGLDRINISLHAVSRDTFKKITGVDAFDRVIEGIKSAIDVGLVPVKLNFVVNRRNREEAFKFIELSQNLGVNEIHLIELHPVGLGKLAFKEHDDLREIEEYIEKISIKKLIRKKHFRPRYVLPSGLIVEVVKPYANPIFCAGCNRIRLSVDGKLKTCLYREDNVIDVLDILKGEYSEDVKEELLGRAFMIAIAIREPNFKYKIEGHHHHHH	soluble
MSLIERVRTDLYRIPLPTRLTDSTHGAMMDFELITVRIEDSDGATGLGYTYTVNHGGAAVATMVDKDLRGCLLGADAEQIEKIWQSMWWRLHYAGRGGHATSAISAVDIALWDLKGIRARTPLWKLFGGYDPVVPVYAGGIDLELPVADLKTQADRFLAGGFRAIKMKVGRPDLKEDVDRVSALREHLGDSFPLMVDANMKWTVDGAIRAARALAPFDLHWIEEPTIPDDLVGNARIVRESGHTIAGGENLHTLYDFHNAVRAGSLTLPEPDVSNIGGYTTFRKVAALAEANNMLLTSHGVHDLTVHALASVPHRTYMEAHGFGLHAYMAEPMAVTDGCVSAPDRPGHGVVLDFERLGRLAVGEGHHHHHH	soluble
MSLIFILGIFYYLTQPLKSNSVVFIPQGSISQIITYLKQNKYQMSNIDKYILFFLGHPQSGWINIGTKDLNRAEFLHKLTIAKAALQTITLIPGETSVIFLEQAAKQLGLDKDILLKEFQAQAPYDEGVFLPETYKIPKGITENLLIQMLLNHAEISNKKTSEKIFGDYNPKKWHQYIIIASVIQKEAANDNEMPIVASVIYNRLKKGMKLQMDGTLNYGIYSHVKVTPQRIRQDNSFYNTYKFTGLPKEAVCNVSLAAIRAAIFPLKTDYLYFVRDKNTGVHIFSTNIDDHNKAINLQKGKEGHHHHHH	not soluble
MSLIGETINKLKVIKESSKRDKSRCKMYECLCECGEVIIVRSSTLRQGKIKSCGCESNKIHSELMRERNTTHGLSSNPMYQRWLGMKQRCYDVNAINYKNYGGRGIEICEEWKNDFKKFYDYMGDPPNENYQIDRINNDGNYEPGNVKWSTRSENSTNIRKKSTHNIYKKSNNVYNIQIVRKNKVKYFSAKSLEEAIELRDNVINKYNETGEGHHHHHH	not soluble
MSLIISELRHEHALRDLLRAAGMSRSTWYYNMNALKQGDRYAGLKENIRKIYHYHKGRYGYRRITLALRKQGLRINHKTVQRLMAELSLRSVIRAKKYRAWKGRTGEAAPNILSRNFGASKANEKWVTDVTEFPVQGKKLYLSSVLDLFNREVIAYSLSERPVMEMVNTMLDGAFPKLRPGDAPLLHSDQGWHYRMRSYQERLKAHGMTQSMSRKGNCLDNAVMENFFGTLKSECFYLREFRSVSALRKAVEDYIHYYNNERISLKLKGLSPVEYRTQALRAAEGHHHHHH	not soluble
MSLILYDYFRSTACYRVRIALNLKKIAYEKIEVHLVNNGGEQHSLQYHQINPQELVPSLDINGQILSQSMAIIDYLEEIHPEMPLLPKDPFMKATLKSMALIVACDMHPLNNLRVLNRLKEQFNANEEQVLEWYHHWLKTGFDAFEEKLGALERDKPVCFGSEVGLADVCLIPQVYNAHRFHFDMASYPIINEINEYCLTLPAFHDAAPEAISSEGHHHHHH	soluble
MSLINLVEKEWQEHQKIVQASEILKGQIAKVGELLCECLKKGGKILICGNGGSAADAQHFAAELSGRYKKERKALAGIALTTDTSALSAIGNDYGFEFVFSRQVEALGNEKDVLIGISTSGKSPNVLEALKKAKELNMLCLGLSGKGGGMMNKLCDHNLVVPSDDTARIQEMHILIIHTLCQIIDESF	soluble
MSLIPATLLLVEDDPDQRIIMQRKLQQQGYKVICAENGEEAVDLYNNNTIDLVLMDAQLPGMDGFEACFLITHTETGSRCPVMMITSLENSESVDRAFQVGAEEYVPKPIHWKVLMQRIRRQIKSRRVHQEGHHHHHH	soluble
MSLIPIDYLRASRKGREVRPRYLNDDKIASEVINMAKSAKTLGEFRNAVELISSDKKLVRGLAHVLEQLIEIEKIDSKLVTRTRLEVFKAASALGYPLTEEERERVFQTVAARLKMGVNEVKALFLKAYEENRLIVKAPDIQPKQLVEMYNLALIQALLFKSLYVKALLPNAPALLKGLIRAVKGLGLMYIVEINGGQLEFRFDGPVSALRQTERYGTRLAKLVPYITSAEKWEIEAQVKLGERIYVFKESGRTAPPLPKTPPHAEQFDSLVEQEFYKQVSKICHVEREPEALVVDGRVYIPDFKIGDLYVEIVGFWTPDYLKRKYEKITKVGKPLLVLVSEELAMATWKQLMPNVVVFKDRPRLSDVFKYIKPYCVNHREGHHHHHH	not soluble
MSLIPIVASSPSPLISGDGDDALTATAVALATTAVHAADDLKIALIYGKTGPLEAYAKQTETGLMMGLEYATKGTMTLDGRKIVVITKDDQSKPDLSKAALAEAYQDDGADIAIGTSSSAAALADLPVAEENKKILIVEPAVADQITGEKWNRYIFRTGRNSSQDAISNAVAIGKQGVTIATLAQDYAFGRDGVAAFKEALAKTGATLATEEYVPTTTTDFTAVGQRLFDALKDKPGKKIIWVIWAGGGDPLTKLQDMDPKRYGIELSTGGNILPALAAYKRLPGMEGATYYYYDIPKNPINEWLVTEHQKRFNAPPDFFTAGGFSAAMAVVTAVQKAKSTDTEKLIAAMEGMEFDTPKGKMVFRKEDHQALQSMYHFKVKVDPAVAWAVLEPVRELKIEEMNIPIKNKGIITITTDPNSSSVDKLAAALEHHHHHH	soluble

Source: the DeepSol protein solubility set
